{"source": "a protein production outcome set (Wang et al. 2014)"}
{"test": "label from the status in PepcDB records"}
{"sequence": "MYPKKQACCPAMVMPYTLHAERTRVEVIPERGGLISRWQWQGHELLYLDRERFANPQFSVRGGIPLLFPICGNLPEDAFHDNGQTYHLKQHGFARDLPWQVLDQRQHVLKLGLQDTPATRQVYPFAFHLTLTYTLAADALAIALEVANPGDIPLPFSFGLHPYFAVADKHQLQFDLPIHAMVDQKTQQPLTFSGTFDWSAAELDWACRPLTGQVARVFDLQQQYCLTLRYDTAFTTLVFWTVQGKPYYCLEPWTAPRNALNTGVDLLHVPPQKHLTLGVEIAVAPL", "protein production": "failed"}
{"sequence": "MYQAVVFFDLDGTLMQDDKTVAASSVRAIQQLRANHVLPVIATGRNVFEVQDVMTTTGIDSIVSANGSYVAYQGQFLSAHELDKELLTDITHFANRQQNALAYYNNAGFALSHRDALTTSNYRALRQTARVAPHFYEHQHINFLLTFDPLNAAQYRQRYRGRLHFVRNNPRALDTMQWGVSKAVGIQDILTKAHLTKVPTYAFGDQLNDIEMFRMIQTPIAMGNGHPQVKQLARYVTADNMHGGIAQGLQHFDLI", "protein production": "failed"}
{"sequence": "MYQVAICDPIHAKGIQILEAQKDIVLHDYSKCPKKELLEKLTPMDALITRSMTPITSDFLKPLTHLKSIVRAGVGVDNIDLESCSQKGIVVMNIPTANTIAAVELTMAHLINAVRSFPCANDQIKHQRLWKREDWYGTELKNKKLGIIGFGNIGSRVGIRAKAFEMEVLAYDPYIPSSKATDLGVIYTKNFEDILQCDMITIHTPKNKETINMIGAKEIERMKKGVILLNCARGGLYNEDALYEALETKKVRWLGIDVFSKEPGIHNKLLDLPNVYATPHIGANTLESQEEISKQAAQGVMESLRGSSHPHALNLPMQAFDASAKAYLNLAQKLGYFSSQIHKGVCQKIELSLCGEINQFKDALVAFMLVGVLKPVVGDKINYINAPFVAKERGIEIKVSLKESASPYKNMLSLTLNAANGTISVSGTVFEEDILKLTEIDGFHIDIEPKGKMLLFRNTDIPGVIGSVGNAFARHGINIADFRLGRNTQKEALALIIVDEEVSLEVLEELKNIPACLSVHYVVI", "protein production": "failed"}
{"sequence": "MYRAAIPNLFTLGNLYSGFLSIGYASLGYYKSAAILVLIGMMLDSLDGRVARLLRVDSQMGKELDSLADVVTFGAAPAVLMYYTSFSNYGIIGLYIAGLFPLFGAYRLARFNVTPSSTSMKYFTGVPITAAGGLVAFLTLFSHTIPKIVLITVFVTFAFLMVSRIRIPSLKDVPIPRYSIIITLFLVGIIITMYQTGFGNFSVFLFIAIPLYILYMLSQFIRQRPSKKANKEK", "protein production": "failed"}
{"sequence": "MYRDRVRLPSLLDKVMSAAEAADLIQDGMTVGMSGFTRAGEAKAVPQALAMRAKERPLRISLMTGASLGNDLDKQLTEAGVLARRMPFQVDSTLRKAINAGEVMFIDQHLSETVEQLRNHQLKLPDIAVIEAAAITEQGHIVPTTSVGNSASFAIFAKQVIVEINLAHSTNLEGLHDIYIPTYRPTRTPIPLTRVDDRIGSTAIPIPPEKIVAIVINDQPDSPSTVLPPDGETQAIANHLIDFFKREVDAGRMSNSLGPLQAGIGSIANAVMCGLIESPFENLTMYSEVLQDSTFDLIDAGKLRFASGSSITLSPRRNADVFGNLERYKDKLVLRPQEISNHPEVVRRLGIIGINTALEFDIYGNVNSTHVGGTKMMNGIGGSGDFARNAHLAIFVTKSIAKGGNISSVVPMVSHVDHTEHDVDILVTEQGLADLRGLAPRERARVIIENCVHPSYQAPLLDYFEAACAKGGHTPHLLREALAWHLNLEERGHMLAG", "protein production": "not failed"}
{"sequence": "MYRHDVSNEEKDIAVSVIALTAAFAIANRFRSPYGPFFILAVSFLVAVTAFLMHELAHRYVARSYGGIAYFKMWPLGLLLALITSLLGFIFAAPGAVNIGGIYRRDQIGKTSLAGPAMNIFLGILFYAISLFTLIPVAIAIFRYVAEMNFWFGFFNLLPIPPLDGYKVFSWDLYVYIVSVVIALVFVVLFVF", "protein production": "failed"}
{"sequence": "MYTENTGKHHRNGLPVWLLPLLVVISFWGVSQNIMVVDASSSVTVLPGNGGTLPLVNQLVIKQNDTALQGITNNAGDRGSLTPKNGAQRVLIHKVKDSDTITSTYGTVGTFHGQEVTAKVTISHIKVHDDSHKAPSGMKQTDGAFQIGPGFSSDTTMSNVAQFNVSYEFYYADTHAAVNIQNAFITLSSLDGPVAGTSTGFEYTAYLGAGKIYTVENSIVKQIANPLGGGQLVMAGQTARDASWPYTSSTAATFGVSGTKLEFIYGTTRVNSGNSWLQPVYNVSTITLGTPAIATPTLSATQSATDKQNRTLTYDLQQKVNVLDQDLMTKYKDWSENITIPANAKYTKGEVVNDAGQALPSTAYQVSYDEKTHQVKWHLTDAGIKSLPFKGETYHFKAQVQFSDDVDDQTKVTATGQTAIDKQTKTSNTVTNTIDNQATITVHHYMTDSTDKVAPDETVKVGYGKAYDVTKQVKTITGYKRNATLDEHTRGTASKTTKEAVMYYDPLPYNIHVNYLLTDGQKLDELDVTGLYGDTYTTEATDFEDLYTVDTDRLPTNAQGTVTEKPTTVNYYYQPTTGQWVDVGNQSSVLVRQDTKHNVRSVSQIYANDSGFTVKYNQDAAQVAIAASDTNGTQDNSLVFDYNSKYTFELSKNETVTFKVDDQGQVTATRVLGAEQTVTTFDKSGQLKTVTTVTNANGTKSQQTNTVDGLKSMVTGEQYDLGLLNGLKVTAQKEINPSQAATTESKTTTDTSQSGSNQSTSTTATDQTETNESTAGSSTNATNASSSVDASSANSQGDTEATSQSGTSASADSKTDSSVASSTSQTTDGKTDGETTNTGDTTTGTTTDSGLGFKSPFTEDQNTSSALGSAQTSSSLNSDTSAAVQALIAEPNSTPVVLGEDASFEEGVPVNDPVFSNDEGVSPNNNPSSAATPLAQATNTRARLTQNGKLLYEGTLKADQGEQNLYVSPDTTVEVDGGDDGDGFYLDTYDGDKGMAYTLGSGYAWAAENNDVTAAPASSATTSSESAASESNTNSSDSSRTASSAVDHSTSSASTSDASQSSHSTSSGESSHPESSSGSSTTSDSADADKQAAARSSQTQSNSVNGSSQAVSSSTVTSQSSVPTKANTKQASSTPTTKANRATVAAATSSTAPRQSRATTASASVPSVTSASAVAASRDKQQSAFKKQHPILNQILPKTNSAVATWLVWLGVGLLLLTVAITMVIKKRGRD", "protein production": "failed"}
{"sequence": "MYTITDIAPTDAEFIALIAALDAWQETLYPAESNHLLDLSQLPPQTVIALAIRSPQGEAVGCGAIVLSEEGFGEMKRVYIDPQHRGQQLGEKLLAALEAKARQRDCHTLRLETGIHQHAAIALYTRNGYQTRCAFAPYQPDPLSVFMEKP", "protein production": "failed"}
{"sequence": "MYTPVSKSTKSNKNRSSLDKILDAKKPVNLLILGTDTGAEGRSVKNYHGLTDLMMFVTVNPSKKQTRVTTIARDSKVNLPDYPEVSPIKLNSAYSLGGVSETIKTLDKYYSVPIDGYVLVNWASTMKIITKMGGVDVISPLTFDNMGYSFKKGQMYHISGKKALAFVQLRHGDPRQDYGRQERERLVMMAAIKKSVSYKTILNSSFMQSLGDSMQTDLSLNDMIKLAMNYQGVTDNVKSDYAQGKSSSVNNQRFGNMEVEIMSTKERQRISNNIRQTLGIKNVDVYKEDNLEHHHHHH", "protein production": "not failed"}
{"sequence": "MYTYDSDKTQDGEENLKCSLEKLAKKIIQNAGDTNGNNSTPNSNDDFAQVFGRERPGRVRCVGLGPTPSSFIQNRTTTTLSKEQEVLSLNNRVRELEDKLVKMSDLEDKVDKMNEVIYISTCRRQQQLHYMTSTMDRRRWLQVEGNDFK", "protein production": "failed"}
{"sequence": "MYVFTIGYFTIPANLFSLITSRYSAERKNVGGIVIINLIAGISSSLVFALLVPYYISLTKLDVPIYFYSAISLIILTYLLTVTNSIAQGRTPKIVGISALIFQVLRLVSGIIFMFIFNLSILAVILAYSIGYLAQVLFNLFFIRANLKIDFKVAFSAVRKAVVYIANYIQYILEASIVWITLGIVNSDLVVAYFESAIIVSNIQIGHKQYIQGLWLS", "protein production": "failed"}
{"sequence": "MYYNIALAYTHLDIHHLAIHFVNMALEGFRSEYKFRNIINCQILIAVSYTEKGQYEEALKMYESILREATSFADKDVLLAITLSNMGSIYYKKGKYQQAKKYYLDSLQLQKQIDLNYLDTIYEMALVCIKLEELEEARTLIDKGIDAAKQEERFNAKLYLLLMLRYKYFEEAKDYKAFLENEAIPLYKSAGNKIELKKVYVELAEHFSSLSRFEESNRYYRLVIDLMNDNKEE", "protein production": "failed"}
{"sequence": "MYYVYVAGYILLAAAMQLFTGNFPVSFLAFPLNIIFAAIWLFLLWILYKEYNNLRITRFLGSSKASVLSISLFIGGCLIIGLFPQLSEPEAEMRKGISASLGCYNFMTSWIFISILLLLLSNLAMITIHACRHRKQARWRFILNHTGLWLALFAGFLGSSDTQTLRIPLYKGEPKHEAFDMNGASYYLDYDMELNSFAVEYYPNGRPSRFSANVRLGNENVLLEVNHPYSYRLGEDVYLTGYDVTKGNESNYCILQVVKQPWKYVMVAGILMMLAGAVLLFINGAKAYDKLG", "protein production": "failed"}
{"sequence": "NALHIINMVGTRNATDYGKHICVSFLQELQMLCPDVLVVSGLAYGIDINAHRSALSVELPTVGVLAHGLDRIYPSLHRKTAIDMLRQGGLLTEFLSGTNPDKHNFISRNRIVAGISDATIVVESAAKGGSLITADIAGSYHRDCFAFPGR", "protein production": "failed"}
{"sequence": "NAMVLREDIDKLKLLAQQFEQELQAYNTRIGNLETRIAYLEDRQFSVTTKLTGDSIWVLSGVGGSEQADGPPDQPVQNGEVTVNFRQRINFNTSFSGEDNLLIRLQSANFFLARGGSNLTDFNFAATEEQGNVNINKMQYSFPVGDRARIWLAGNRITMDDIMDPLAPYTNSFTDGAVSFFGAIAPIYLPNDNSGPGAGFSYNFTDDLSLGGFYSAGKGFSPNQSEGLFNGQFGVGAQLNYVPAANTGVAFSYLHNYIPQGQYDSFSALGYTGLANTDNPFDDAASSTNHYAVIWTWQLADWFSLEGWGMYSDATAKSGDRQGDTADIWNWKVSLAFPDLGKEGNVGVVSVGQPPYASFISNNNNVPDITPATTDAPWFVETFYLYQFNDNISLTPAFWIGINPANGRDPLWVAALRTSFKF", "protein production": "failed"}
{"sequence": "NANDQAIAYVMLGNKAQTVLNGNLKVDFMETENSSSVKKQKALVAKVSQREEMVKKCLGELTEVCKSLGKVFGVHYFNIFNTVTLKKLAESLSSDPEVLLQIDGVTEDKLEKYGAEVISVLQKYSEWTSPAED", "protein production": "failed"}
{"sequence": "NANLDPKTRVLEHRLLAASSAIAEKLGVSAGDEVLLIRRLRSTGDIPVAILENYLPPAFNDVSLDELEKGGLYDALRSRGVVLKIANQKIGARRAVGEESTLLDIEDGGPLLTVERVALDNSGQVIELGSHCYRPDMYN", "protein production": "failed"}
{"sequence": "NDTELPTYRVVSRLSLDDLIETIDEDLDREIEFSEEILDQVDTVGGLIAFEKGRIPLPGTTVTTSGLQLQAEGGRDRRGRIQVRSVLVSVLPVESLSEL", "protein production": "failed"}
{"sequence": "NIESIENLQGIRALQQQAPQLLSSGLPNEQQFSLLKQAGVDVVINLMPDSSKDAHPDEGKLVTQAGMDYVYIPVDWQNPKVEDVEAFFAAMDQHKGKDVLVHCLANYRASAFAYLYQLKQGQNPNMAQTMTPWNDELAIYPKWQALLTEVSAKYGH", "protein production": "not failed"}
{"sequence": "NILKIRCAPVTWPIGMGKNFKGVYHILNDEIYLFEAGGERLPHEFDIIKGIDNPELEQRFPLEIQQLRDEIELVQAASNEFNLDEFLAGELTPVFFGSAINNFGIQEILNSLIDWAPAPKPRDATVRMVEPDEPKFSGFIFKIQANMDPKHRDRIAFLRVCSGKFERGMKMKHLRINREIAASSVVTFMSHDRELVEEAYAGDIIGIPNHGNIQIGDSFSEGEQLAFTGIPFFAPELFRSVRIKNPLKIKQLQKGLQQLGEEGAVQVFKPMSGADLILGAVGVLQFEVVTSRLANEYGVEAVFDSASIWSARWVSCDDKKKLAEFEKANAGNLAIDAGGNLAYLAPNRVNLGLTQERWPDIVFHETREHSVKL", "protein production": "failed"}
{"sequence": "NILSLLLHPRLGAVIQQMLEMPGHAWTVESLASIAHMSRASFAQLFRDVSGTTPLAVLTKLRLQIAAQMFSRETLPVVVIAESVGYASESSFHKAFVREFGCTPGEYRERVRQLA", "protein production": "not failed"}
{"sequence": "NKDNLDLAGLTSLLSEKIKEFLQEKKMQSFYQQELETVESLQSLASRPVTHSTGSDQVELKDSGTSGVAQRVFKNALQLLQEKGLVFQRDSGSDKLYYVTTKDKDLQ", "protein production": "not failed"}
